The source of these data is patent EP4786497A1 (Astellas Pharma Inc., dated 2026).

In experiment [1] the target is T1, human MerTK-human Fc fusion protein (human, UniProt Q12866 21-505).
T1 construct: range 21-505; Made in ExpiCHO-S cells; also called human MerTK-Fc protein; MerTK-Fc fusion protein; not shown: human IgG1 Fc as encoded by the pFUSE-hIgG1-Fc1 vector (InvivoGen)
T1 sequence (looked up): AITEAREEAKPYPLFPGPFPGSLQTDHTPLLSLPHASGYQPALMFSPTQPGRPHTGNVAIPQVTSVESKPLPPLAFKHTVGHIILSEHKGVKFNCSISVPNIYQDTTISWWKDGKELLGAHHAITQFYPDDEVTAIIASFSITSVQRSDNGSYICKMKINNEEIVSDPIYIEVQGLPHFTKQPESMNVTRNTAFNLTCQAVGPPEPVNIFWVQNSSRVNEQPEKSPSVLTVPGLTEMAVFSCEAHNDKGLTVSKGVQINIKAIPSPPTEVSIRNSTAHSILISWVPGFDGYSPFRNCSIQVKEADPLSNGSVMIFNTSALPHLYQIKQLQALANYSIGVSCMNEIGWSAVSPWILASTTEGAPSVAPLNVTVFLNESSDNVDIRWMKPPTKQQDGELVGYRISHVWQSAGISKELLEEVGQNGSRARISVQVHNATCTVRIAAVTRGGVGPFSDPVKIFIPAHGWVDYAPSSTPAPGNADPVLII
Nature of the experiment: ELISA, MerTK protein immobilized at 1 µg/mL.

Experiment [2] deals with T2, mouse MerTK-human Fc fusion protein (mouse; human, UniProt Q60805 19-497).
T2 construct: range 19-497; Made in ExpiCHO-S cells; also called protein of mouse MerTK fused with human Fc; not shown: human IgG1 Fc as encoded by the pFUSE-hIgG1-Fc1 vector (InvivoGen)
T2 sequence (looked up): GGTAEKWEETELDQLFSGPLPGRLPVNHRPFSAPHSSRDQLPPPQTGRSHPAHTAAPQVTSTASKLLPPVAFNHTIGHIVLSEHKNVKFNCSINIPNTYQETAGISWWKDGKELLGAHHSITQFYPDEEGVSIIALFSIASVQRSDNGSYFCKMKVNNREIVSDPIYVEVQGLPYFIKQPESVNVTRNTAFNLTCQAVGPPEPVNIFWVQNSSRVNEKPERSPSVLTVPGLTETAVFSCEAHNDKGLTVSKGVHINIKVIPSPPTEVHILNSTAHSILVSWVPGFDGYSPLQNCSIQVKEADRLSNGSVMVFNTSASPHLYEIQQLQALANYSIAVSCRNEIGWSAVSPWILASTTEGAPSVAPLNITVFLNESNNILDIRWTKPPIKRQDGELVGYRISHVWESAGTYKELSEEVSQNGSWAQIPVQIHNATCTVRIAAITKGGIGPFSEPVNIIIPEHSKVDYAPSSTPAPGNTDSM
Nature of the experiment: ELISA, MerTK protein immobilized at 1 µg/mL.

The target of experiment [3] is T3, human MerTK-His protein (human, UniProt Q12866 21-505).
T3 construct: range 21-505; Made in ExpiCHO-S cells; also called protein of human MerTK fused with His tag
T3 sequence: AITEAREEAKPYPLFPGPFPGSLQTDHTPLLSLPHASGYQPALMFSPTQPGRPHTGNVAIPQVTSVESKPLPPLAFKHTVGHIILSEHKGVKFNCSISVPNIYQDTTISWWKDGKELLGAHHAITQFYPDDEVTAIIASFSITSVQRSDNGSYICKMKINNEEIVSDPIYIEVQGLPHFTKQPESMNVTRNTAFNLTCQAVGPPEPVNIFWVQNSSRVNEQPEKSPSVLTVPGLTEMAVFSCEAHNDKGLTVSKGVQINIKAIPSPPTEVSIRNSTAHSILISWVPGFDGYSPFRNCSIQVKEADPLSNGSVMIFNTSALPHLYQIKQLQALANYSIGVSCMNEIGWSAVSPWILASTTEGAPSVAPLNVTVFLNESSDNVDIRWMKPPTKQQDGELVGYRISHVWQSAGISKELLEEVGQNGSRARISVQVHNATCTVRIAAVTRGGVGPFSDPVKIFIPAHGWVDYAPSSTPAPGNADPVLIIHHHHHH
In words: ELISA, human MerTK-His immobilized at 1 µg/mL. Background: In an ELISA, binding on a coated surface is turned into a signal by an enzyme label.

For experiment [4], the target named is T3, human MerTK-His protein. Nature of the experiment: ELISA, human MerTK-His immobilized, same method.
In experiment [5] the target is T1, human MerTK-human Fc fusion protein. Nature of the experiment: ELISA, human MerTK-Fc immobilized at 1 µg/mL.
The target in experiment [6] is misfolding-treated recombinant human TTR V30M protein (human, UniProt P02766 21-147). In words: ELISA, misTTR immobilized at 2 µg/mL.

B1: tA3-20 (antibody, human IgG1, lambda, L234A L235A)
heavy: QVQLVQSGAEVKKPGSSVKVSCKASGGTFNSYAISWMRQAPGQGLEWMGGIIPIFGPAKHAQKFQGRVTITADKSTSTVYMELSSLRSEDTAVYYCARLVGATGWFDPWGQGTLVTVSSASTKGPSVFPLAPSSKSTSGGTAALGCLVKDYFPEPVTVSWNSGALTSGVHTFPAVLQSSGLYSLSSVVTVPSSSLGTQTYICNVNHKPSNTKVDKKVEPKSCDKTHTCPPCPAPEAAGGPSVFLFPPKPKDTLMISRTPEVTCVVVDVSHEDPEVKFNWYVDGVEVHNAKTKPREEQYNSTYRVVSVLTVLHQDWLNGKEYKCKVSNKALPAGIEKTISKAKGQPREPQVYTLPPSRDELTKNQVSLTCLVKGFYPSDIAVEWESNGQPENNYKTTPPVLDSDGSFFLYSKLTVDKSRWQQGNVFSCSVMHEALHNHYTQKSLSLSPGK
light: FMLTQPHSVSESPGKTVNISCTRSSGSIATNYVQWYQQRPGSSPTTVIYEDNQRPSGVPDRFSGSIDSSSNSASLTISGLKTEDEAVYHCQSYDSSNVVFGGGTKLTVLGQPKAAPSVTLFPPSSEELQANKATLVCLISDFYPGAVTVAWKADSSPVKAGVETTTPSKQSNNKYAASSYLSLTPEQWKSHRSYSCQVTHEGSTVEKTVAPTECS
notes: human lambda constant region; also called fully human anti-MerTK antibody; anti-MerTK agonist antibody tA3-20
Take B1: the binding result (in experiment [1]; in experiment [2]; in the experiment with human MerTK-His protein [3]) was “binds” throughout.

B2: tA3-20.1 (antibody, human IgG1, lambda, L234A L235A)
heavy: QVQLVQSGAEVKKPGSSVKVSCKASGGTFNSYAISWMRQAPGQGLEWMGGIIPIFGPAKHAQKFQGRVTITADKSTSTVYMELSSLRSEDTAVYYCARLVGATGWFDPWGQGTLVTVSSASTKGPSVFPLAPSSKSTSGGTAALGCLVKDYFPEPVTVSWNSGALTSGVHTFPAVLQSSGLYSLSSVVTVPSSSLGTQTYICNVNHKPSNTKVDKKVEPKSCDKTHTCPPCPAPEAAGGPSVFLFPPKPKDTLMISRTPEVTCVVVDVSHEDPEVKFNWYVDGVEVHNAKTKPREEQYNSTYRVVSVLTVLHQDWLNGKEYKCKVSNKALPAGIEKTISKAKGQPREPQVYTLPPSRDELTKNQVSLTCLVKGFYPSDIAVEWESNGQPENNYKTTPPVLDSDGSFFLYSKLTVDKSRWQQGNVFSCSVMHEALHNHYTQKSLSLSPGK
light: FMLTQPHSVSESPGKTVTISCTRSSGSIATNYVQWYQQRPGSSPTTVIYEDNQRPSGVPDRFSGSIDSSSNSASLTISGLKTEDEAVYHCQSYDSSNVVFGGGTKLTVLGQPKAAPSVTLFPPSSEELQANKATLVCLISDFYPGAVTVAWKADSSPVKAGVETTTPSKQSNNKYAASSYLSLTPEQWKSHRSYSCQVTHEGSTVEKTVAPTECS
On to B2, for which the binding result in the experiment with human MerTK-His protein [3] was “binds”.

B3: tA3-20.2 (antibody, human IgG1, lambda, L234A L235A)
heavy: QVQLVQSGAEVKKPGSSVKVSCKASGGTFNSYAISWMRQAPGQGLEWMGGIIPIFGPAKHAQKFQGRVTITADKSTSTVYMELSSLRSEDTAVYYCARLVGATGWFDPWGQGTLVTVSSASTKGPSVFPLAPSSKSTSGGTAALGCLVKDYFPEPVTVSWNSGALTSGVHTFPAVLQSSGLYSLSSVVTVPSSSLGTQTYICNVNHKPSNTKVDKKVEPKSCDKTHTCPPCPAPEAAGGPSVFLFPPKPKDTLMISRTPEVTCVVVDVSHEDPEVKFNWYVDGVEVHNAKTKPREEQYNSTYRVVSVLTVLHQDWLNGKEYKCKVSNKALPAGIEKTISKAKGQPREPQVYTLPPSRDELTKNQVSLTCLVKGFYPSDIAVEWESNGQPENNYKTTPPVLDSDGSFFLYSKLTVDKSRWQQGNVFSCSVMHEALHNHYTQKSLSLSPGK
light: FMLTQPHSVSESPGKTVSISCTRSSGSIATNYVQWYQQRPGSSPTTVIYEDNQRPSGVPDRFSGSIDSSSNSASLTISGLKTEDEAVYHCQSYDSSNVVFGGGTKLTVLGQPKAAPSVTLFPPSSEELQANKATLVCLISDFYPGAVTVAWKADSSPVKAGVETTTPSKQSNNKYAASSYLSLTPEQWKSHRSYSCQVTHEGSTVEKTVAPTECS
With B3, in the experiment with human MerTK-His protein [3], the binding result is “binds”.

B4: tA3-20.3 (antibody, human IgG1, lambda, L234A L235A)
heavy: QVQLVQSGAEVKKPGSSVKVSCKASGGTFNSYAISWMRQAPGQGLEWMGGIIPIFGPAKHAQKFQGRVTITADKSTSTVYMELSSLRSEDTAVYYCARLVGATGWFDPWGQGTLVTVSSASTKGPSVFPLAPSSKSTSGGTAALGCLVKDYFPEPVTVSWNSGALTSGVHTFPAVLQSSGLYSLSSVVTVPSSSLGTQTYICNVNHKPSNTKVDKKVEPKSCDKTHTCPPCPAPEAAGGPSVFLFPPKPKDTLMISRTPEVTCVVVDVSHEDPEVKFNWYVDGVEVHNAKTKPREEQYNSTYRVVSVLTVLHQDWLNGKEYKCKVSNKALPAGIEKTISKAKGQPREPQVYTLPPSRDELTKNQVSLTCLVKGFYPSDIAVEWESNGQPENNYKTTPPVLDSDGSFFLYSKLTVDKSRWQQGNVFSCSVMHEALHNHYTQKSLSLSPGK
light: NFMLTQPHSVSESPGKTVNISCTRSSGSIATNYVQWYQQRPGSSPTTVIYEDNQRPSGVPDRFSGSIDSSSNSASLTISGLKTEDEAVYHCQSYDSSNVVFGGGTKLTVLGQPKAAPSVTLFPPSSEELQANKATLVCLISDFYPGAVTVAWKADSSPVKAGVETTTPSKQSNNKYAASSYLSLTPEQWKSHRSYSCQVTHEGSTVEKTVAPTECS
For the molecule B4, in the experiment with human MerTK-His protein [4], the binding result is on record as “binds”.

B5: tA3-20.4 (antibody, human IgG1, lambda, L234A L235A)
heavy: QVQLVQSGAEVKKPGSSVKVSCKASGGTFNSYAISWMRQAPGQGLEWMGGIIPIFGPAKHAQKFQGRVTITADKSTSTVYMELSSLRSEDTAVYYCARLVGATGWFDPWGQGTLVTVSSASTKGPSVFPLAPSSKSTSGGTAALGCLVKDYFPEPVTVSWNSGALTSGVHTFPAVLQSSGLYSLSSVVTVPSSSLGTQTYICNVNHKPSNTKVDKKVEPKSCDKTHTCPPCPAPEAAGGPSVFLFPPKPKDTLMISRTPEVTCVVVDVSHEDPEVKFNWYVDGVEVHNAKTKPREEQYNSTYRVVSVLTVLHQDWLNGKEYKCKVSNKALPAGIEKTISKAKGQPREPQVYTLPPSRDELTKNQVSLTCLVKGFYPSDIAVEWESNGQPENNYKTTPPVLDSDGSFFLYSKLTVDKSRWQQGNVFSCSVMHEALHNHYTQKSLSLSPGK
light: NFMLTQPHSVSESPGKTVTISCTRSSGSIATNYVQWYQQRPGSSPTTVIYEDNQRPSGVPDRFSGSIDSSSNSASLTISGLKTEDEAVYHCQSYDSSNVVFGGGTKLTVLGQPKAAPSVTLFPPSSEELQANKATLVCLISDFYPGAVTVAWKADSSPVKAGVETTTPSKQSNNKYAASSYLSLTPEQWKSHRSYSCQVTHEGSTVEKTVAPTECS
Take B5: in the experiment with human MerTK-His protein [4], the binding result is “binds”.

B6: tA3-20.5 (antibody, human IgG1, lambda, L234A L235A)
heavy: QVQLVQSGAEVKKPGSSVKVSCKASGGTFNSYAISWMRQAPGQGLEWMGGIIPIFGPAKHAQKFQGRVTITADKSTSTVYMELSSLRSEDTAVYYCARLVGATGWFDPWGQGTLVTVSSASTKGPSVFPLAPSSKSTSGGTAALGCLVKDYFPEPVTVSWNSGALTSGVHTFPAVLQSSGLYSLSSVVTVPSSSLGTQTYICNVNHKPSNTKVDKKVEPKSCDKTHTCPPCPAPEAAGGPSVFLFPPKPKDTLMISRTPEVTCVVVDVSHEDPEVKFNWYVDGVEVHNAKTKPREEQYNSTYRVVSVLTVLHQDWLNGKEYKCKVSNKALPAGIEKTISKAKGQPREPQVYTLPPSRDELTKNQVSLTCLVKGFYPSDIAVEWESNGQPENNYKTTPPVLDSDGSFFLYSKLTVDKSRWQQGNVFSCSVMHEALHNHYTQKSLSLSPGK
light: NFMLTQPHSVSESPGKTVSISCTRSSGSIATNYVQWYQQRPGSSPTTVIYEDNQRPSGVPDRFSGSIDSSSNSASLTISGLKTEDEAVYHCQSYDSSNVVFGGGTKLTVLGQPKAAPSVTLFPPSSEELQANKATLVCLISDFYPGAVTVAWKADSSPVKAGVETTTPSKQSNNKYAASSYLSLTPEQWKSHRSYSCQVTHEGSTVEKTVAPTECS
In the case of B6, the binding result with human MerTK-His protein [4] was “binds”.

B7: tA-009 (bispecific antibody, mouse IgG2a)
heavy: QVQLVQSGAEVKKPGSSVKVSCKASGGTFNSYAISWMRQAPGQGLEWMGGIIPIFGPAKHAQKFQGRVTITADKSTSTVYMELSSLRSEDTAVYYCARLVGATGWFDPWGQGTLVTVSSAKTTAPSVYPLAPVCGDTTGSSVTLGCLVKGYFPEPVTLTWNSGSLSSGVHTFPAVLQSDLYTLSSSVTVTSSTWPSQSITCNVAHPASSTKVDKKIEPRGPTIKPCPPCKCPAPNAAGGPSVFIFPPKIKDVLMISLSPIVTCVVVDVSEDDPDVQISWFVNNVEVHTAQTQTHREDYNSTLRVVSALPIQHQDWMSGKEFKCKVNNKDLAAPIERTISKPKGSVRAPQVYVLPPPEKEMTKKQVSLTCLVKDFMPEDIYVEWTNNGKTELNYKNTEPVLKSDGSYFMYSKLTVEKKNWVERNSYSCSVVHEGLHNHHTTKSFSRTPGK
light: NFMLTQPHSVSESPGKTVNISCTRSSGSIATNYVQWYQQRPGSSPTTVIYEDNQRPSGVPDRFSGSIDSSSNSASLTISGLKTEDEAVYHCQSYDSSNVVFGGGTKLTVLGQPKSSPSVTLFPPSSEELETNKATLVCTITDFYPGVVTVDWKVDGTPVTQGMETTQPSKQSNNKYMASSYLTLTARAWERHSSYSCQVTHEGHTVEKSLSRADCS
chain: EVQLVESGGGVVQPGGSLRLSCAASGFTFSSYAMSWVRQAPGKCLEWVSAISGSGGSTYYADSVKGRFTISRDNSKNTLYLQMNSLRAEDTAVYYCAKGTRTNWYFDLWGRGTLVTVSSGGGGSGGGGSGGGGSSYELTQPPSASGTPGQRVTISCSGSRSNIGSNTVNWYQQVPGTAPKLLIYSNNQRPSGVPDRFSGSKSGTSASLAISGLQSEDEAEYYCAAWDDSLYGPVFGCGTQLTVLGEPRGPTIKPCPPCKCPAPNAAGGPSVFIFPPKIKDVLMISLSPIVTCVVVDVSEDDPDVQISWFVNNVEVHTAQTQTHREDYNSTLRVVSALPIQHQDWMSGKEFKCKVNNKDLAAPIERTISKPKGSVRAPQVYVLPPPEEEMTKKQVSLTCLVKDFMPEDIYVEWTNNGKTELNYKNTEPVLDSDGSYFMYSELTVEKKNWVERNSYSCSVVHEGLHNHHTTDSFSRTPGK
notes: also called mouse-type anti-MerTK-anti-TTR bispecific antibody
For the molecule B7, the binding result in experiment [5] and in experiment [6] was “binds” in each case.
